Experimental data taken from patent publication US20230265217A1 (TWIST BIOSCIENCE, published 2023).
Where a chain is given by its changes, count along the chain named.

B1: 7-21 (VHH)
VHH: EVQLVESGGGLVQPGGSLRLSCAASGRTISRYTMGWFRQAPGKEREFVASITSGGSTAYADSVKGRFTISADNSKNTAYLQMNSLKPEDTAVYYCAKEDVGKPFDWGQGTLVTVSS
B2: 7-45 (VHH)
VHH: B1 VHH with I29L, A58N
B3: 7-41 (VHH)
VHH: B1 VHH with I29F, R31T, T33V, T52S, G54R, S56I, A58H
B4: 7-40 (VHH)
VHH: B1 VHH with I29F, S30R, S53K, G54F, A58N
B5: 7-22 (VHH, not shown: a dimerising Fc or GST)
VHH: B1 VHH with S30T, E98Q
B6: 3-24 (VHH, not shown: a dimerising Fc or GST)
VHH: EVQLVESGGGLVQPGGSLRLSCAASGINFSRYGMGWFRQAPGKEREFVASITYLGRTNYADSVKGRFTISADNSKNTAYLQMNSLKPEDTAVYYCALRVRPYGQYDWGQGTLVTVSS
B7: 3-28 (VHH, not shown: a dimerising Fc or GST)
VHH: EVQLVESGGGLVQPGGSLRLSCAASGFTFRRYDMGWFRQAPGKEREFVSAISGGLAYYADSVKGRFTISADNSKNTAYLQMNSLKPEDTAVYYCAVDLSGDAVYDWGQGTLVTVSS
B8: 7-24 (VHH, not shown: a dimerising Fc or GST)
VHH: EVQLVESGGGLVQPGGSLRLSCAASGFTFSRHAMNWFRQAPGKEREFVSTITGSGGSTNYADSVKGRFTISADNSKNTAYLQMNSLKPEDTAVYYCAREVGLYYYGSGSSSRRLLGRIDYYFDYWGQGTLVTVSS
B9: 7-09 (VHH)
VHH: EVQLVESGGGLVQPGGSLRLSCAASGGTFSSIGMGWFRQAPGKEREFVAAISWDGGATAYADSVKGRFTISADNSKNTAYLQMNSLKPEDTAVYYCAKEDVGKPFDWGQGTLVTVSS
notes: also called 7-9
B10: 8-10 (VHH, not shown: a dimerising Fc or GST)
VHH: EVQLVESGGGLVQPGGSLRLSCAASGFIGNYHAMGWFRQAPGKEREFVAAVTWSGGTTNYADSVKGRFTISADNSKNTAYLQMNSLKPEDTAVYYCAREGYYYDSSGYPYYFDYWGQGTLVTVSS
B11: 7-14 (VHH)
VHH: EVQLVESGGGLVQPGGSLRLSCAASGSTFSINAMGWFRQAPGKEREFVAGISRGGTTNYADSVKGRFTISADNSKNTAYLQMNSLKPEDTAVYYCAADGVPEYSDYASGPVWGQGTLVTVSS
B12: 7-32 (VHH)
VHH: B11 VHH with I31V, I51V, S52T, T56Y
B13: 7-31 (VHH, not shown: a dimerising Fc or GST)
VHH: EVQLVESGGGLVQPGGSLRLSCAASGFTFSNYSMGWFRQAPGKEREFVAAIHWNGDSTAYADSVKGRFTISADNSKNTAYLQMNSLKPEDTAVYYCAAQTEDSAQYIWGQGTLVTVSS
B14: 7-30 (VHH, not shown: a dimerising Fc or GST)
VHH: EVQLVESGGGLVQPGGSLRLSCAASGRTFSMHAMGWFRQAPGKEREFVASISSQGRTNYADSVKGRFTISADNSKNTAYLQMNSLKPEDTAVYYCAAEVRNGSDYLPIDWGQGTLVTVSS
B15: 3-17 (VHH, not shown: a dimerising Fc or GST)
VHH: EVQLVESGGGLVQPGGSLRLSCAASGRTSSSAVMGWFRQAPGKEREFVAAINRGGSTIYVDSVKGRFTISADNSKNTAYLQMNSLKPEDTAVYYCATGPYRSYFARSYLWGQGTLVTVSS
B16: 7-6 (VHH, not shown: a dimerising Fc or GST)
VHH: EVQLVESGGGLVQPGGSLRLSCAASGRIFYPMGWFRQAPGKEREFVAAVRWSSTGIYYTQYADSVKGRFTISADNSKNTAYLQMNSLKPEDTAVYYCAAALSEVWRGSENLREGYDWGQGTLVTVSS
B17: 7-29 (VHH, not shown: a dimerising Fc or GST)
VHH: EVQLVESGGGLVQPGGSLRLSCAASGRTHSIYPMGWFRQAPGKEREFVASITSYGDTNYADSVKGRFTISADNSKNTAYLQMNSLKPEDTAVYYCAARRWIPPGPIWGQGTLVTVSS
B18: 7-17 (VHH, not shown: a dimerising Fc or GST)
VHH: EVQLVESGGGLVQPGGSLRLSCAASGFSLDYYGMGWFRQAPGKEREFVAAITSGGTPHYADSVKGRFTISADNSKNTAYLQMNSLKPEDTAVYYCASAYNPGIGYDWGQGTLVTVSS
B19: 8-06 (VHH, not shown: a dimerising Fc or GST)
VHH: EVQLVESGGGLVQPGGSLRLSCAASGFTFDYYAMGWFRQAPGKEREFVSAIDSEGRTSYADSVKGRFTISADNSKNTAYLQMNSLKPEDTAVYYCARWGPFDIWGQGTLVTVSS
notes: also called 8-6
B20: 8-3 (VHH, not shown: a dimerising Fc or GST)
VHH: EVQLVESGGGLVQPGGSLRLSCAASGTTLDYYAMGWFRQAPGKEREFVAAISWSGGSTAYADSVKGRFTISADNSKNTAYLQMNSLKPEDTAVYYCAREDYYDSSGYSWGQGTLVTVSS
B21: 7-26 (VHH)
VHH: EVQLVESGGGLVQPGGSLRLSCAASGSTFSINAMGWFRQAPGKEREFVAGITSSGGYTNYADSVKGRFTISADNSKNTAYLQMNSLKPEDTAVYYCAADGVPEYSDYASGPVWGQGTLVTVSS
B22: 3-31 (VHH)
VHH: B21 VHH
notes: also called 3-31_ExpiCHO
B23: 7-37 (VHH)
VHH: B21 VHH with F29L, S53R, G56S, Y57V
B24: 7-8 (VHH)
VHH: B21 VHH with S30T, A49S, T52S, S53H, S54N, Y57T
B25: 5A-1 (VHH)
VHH: B9 VHH
B26: 6A-3 (VHH)
VHH: EVQLVESGGGLVQPGGSLRLSCAASGFTFSPSWMGWFRQAPGKEREFVATINEYGGRNYADSVKGRFTISADNSKNTAYLQMNSLKPEDTAVYYCARVDRDFDYWGQGTLVTVSS
B27: 6A-63 (VHH)
VHH: EVQLVESGGGLVQPGGSLRLSCAASGQTFNMGWFRQAPGKEREFVAAIGSGGSTSYADSVKGRFTISADNSKNTAYLQMNSLKPEDTAVYYCWRLGNDYFDYWGQGTLVTVSS

Each binder was assayed against T1, SARS-CoV-2 S1 (Acro) (SARS-CoV-2, UniProt P0DTC2 16-685) (assay: Carterra SPR).
T1 construct: also called Acro S1
With B1 the Kd was 0.0271 µM.
B2 gave a Kd of 0.0363 µM.
For B3, the Kd was 0.0481 µM.
With B4 the Kd was 85.6 µM.
Work on B5 yielded a Kd of 0.0409 µM.
B6: no binding.
B7 was tested, and the Kd was 0.0522 µM.
Binder B8 has a Kd of 4260 µM.
In the case of B9, the Kd is reported as 0.0241 µM.
For B10, the Kd was 658 µM.
B11 was tested, and the Kd was 0.0208 µM.
B12 gave a Kd of 0.0485 µM.
Work on B13 yielded a Kd of 0.228 µM.
For B14, the Kd was 0.0487 µM.
With B15 the Kd was 0.141 µM.
Work on B16 yielded a Kd of 0.0424 µM.
With B17 the Kd was 0.0312 µM.
For B18, the Kd was 0.0604 µM.
For B19, the Kd was 0.0377 µM.
With B20 the Kd was 18.4 µM.
B21 showed a Kd of 0.0248 µM.
For B22, the Kd was 0.021 µM.
For B23, the Kd was 0.0216 µM.
For B24, the Kd was 0.0528 µM.

What follows are binders tested against SARS-CoV-2 S1 monomer (SARS-CoV-2, UniProt P0DTC2 16-685) (assay: binding kinetics, Carterra SPR).
B11 was tested, and the Kd was 0.00957 µM, the koff was 0.000404 s⁻¹ and the kon was 42200 M⁻¹ s⁻¹.
For B21, the Kd was 0.00363 µM.
Work on B22 yielded a Kd of 0.00591 µM.
With B23 the Kd was 0.0171 µM, the koff was 0.000528 s⁻¹ and the kon was 30800 M⁻¹ s⁻¹.

Biological target: T1, SARS-CoV-2 S1 (Acro)
Test: Carterra SPR
Remark: another data set of the same source
Binder B7 has a Kd of 0.0522 µM.
B9 showed a Kd of 0.0241 µM.
B25 was tested, and the Kd was 0.0066 µM.
For B11, the Kd was 0.0208 µM.
B14 gave a Kd of 0.0487 µM.
B26 was tested, and the Kd was 0.0315 µM.
B27 was tested, and the Kd was 0.0464 µM.
Binder B21 has a Kd of 0.0248 µM.
For B22, the Kd was 0.021 µM.
Binder B23 has a Kd of 0.0216 µM.
